The values below come from US20090022714A1, “Combination methods of inhibiting tumor growth with a vascular endothelial growth factor receptor antagonist” (ImClone Systems, Inc., priority 2001, published 2009).

For this assay, the target named is chimeric receptor mouse flk-1 (VEGFR-2)/human fms expressed on transfected 3T3 cells (C441) (mouse; human) (UniProt P35918). Nature of the assay: cell-based or functional assay.
Sequence of chimeric receptor mouse flk-1 (VEGFR-2)/human fms expressed on transfected 3T3 cells (C441) (mouse; human) (P35918 other isoform, or with tags, fused parts or gaps mutant limits assumed): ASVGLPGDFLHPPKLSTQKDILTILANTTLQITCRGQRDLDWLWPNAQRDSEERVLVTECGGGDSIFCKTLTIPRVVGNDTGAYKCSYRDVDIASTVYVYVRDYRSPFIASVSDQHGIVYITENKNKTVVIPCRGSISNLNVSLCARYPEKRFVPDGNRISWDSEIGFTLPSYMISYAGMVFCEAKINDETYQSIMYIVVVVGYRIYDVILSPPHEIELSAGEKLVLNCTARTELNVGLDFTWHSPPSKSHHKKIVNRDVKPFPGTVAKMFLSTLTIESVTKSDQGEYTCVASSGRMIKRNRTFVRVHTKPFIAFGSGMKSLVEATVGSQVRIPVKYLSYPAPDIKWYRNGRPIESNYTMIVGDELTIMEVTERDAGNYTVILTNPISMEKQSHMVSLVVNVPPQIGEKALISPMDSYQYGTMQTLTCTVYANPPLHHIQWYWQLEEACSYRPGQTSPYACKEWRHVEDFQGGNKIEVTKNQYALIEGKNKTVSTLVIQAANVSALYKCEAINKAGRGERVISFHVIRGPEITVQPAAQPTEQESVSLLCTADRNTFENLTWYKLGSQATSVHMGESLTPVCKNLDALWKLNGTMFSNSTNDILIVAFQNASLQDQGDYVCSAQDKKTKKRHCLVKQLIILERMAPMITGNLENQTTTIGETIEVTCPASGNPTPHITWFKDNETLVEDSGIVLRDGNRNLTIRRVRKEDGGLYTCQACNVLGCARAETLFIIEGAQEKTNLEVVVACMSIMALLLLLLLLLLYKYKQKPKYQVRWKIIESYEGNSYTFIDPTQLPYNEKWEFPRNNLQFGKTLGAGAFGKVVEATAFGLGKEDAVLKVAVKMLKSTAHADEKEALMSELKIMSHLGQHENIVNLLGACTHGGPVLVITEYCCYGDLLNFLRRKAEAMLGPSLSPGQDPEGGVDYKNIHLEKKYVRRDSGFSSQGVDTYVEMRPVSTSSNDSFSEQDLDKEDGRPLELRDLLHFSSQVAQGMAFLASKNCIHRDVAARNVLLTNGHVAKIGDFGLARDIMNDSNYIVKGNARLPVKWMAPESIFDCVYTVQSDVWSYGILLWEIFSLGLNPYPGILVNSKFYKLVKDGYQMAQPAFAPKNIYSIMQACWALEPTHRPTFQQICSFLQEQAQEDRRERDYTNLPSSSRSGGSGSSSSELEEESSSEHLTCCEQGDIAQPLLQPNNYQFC

B1: rat anti-mouse flk-1 (VEGFR-2) monoclonal antibody DC-101 (antibody, from another filing, rat IgG1, V domains shown)
VH: EVQLVETGGGLVQPGNSLKLSCATSGFIFSTTWMNWIRQTPGKRLEWLAQIEDKSNNYFISYSESVKGRFTISRDDSKSSVYLQMNNLKEEDTAIYYCSWKYRSNYYFDYWGQGVMVTVSS
VL: DIVLTQSPALAVSLEQRATISCKTSQNVDYYGISYLHWYQQKPGQQPKLLIYEGSNLASGIPARFSGSGSGTDFTLTIDPVEADDIVTYYCQQSKDYPYTFGAGTKLELKR
In turn, B1 returned an inhibition of receptor activation by ligand below 1 µg/mL; an inhibition of receptor activation by ligand, prebound antibody below 1 µg/mL; a phosphorylation level relative to the fully stimulated receptor control, antibody added with ligand (densitometry) of 40%; a phosphorylation level relative to the fully stimulated receptor control, antibody prebound (densitometry) of 6%. The phosphorylation of flk-1 (VEGFR-2), competitive antibody titration was above 0.5 µg/mL.
